According to IntAct's records for PubMed 19779455:

B1: E3 SUMO-protein ligase PIAS4 (Homo sapiens), Q8N2W9 (parent)
chain: MAAELVEAKNMVMSFRVSDLQMLLGFVGRSKSGLKHELVTRALQLVQFDCSPELFKKIKELYETRYAKKNSEPAPQPHRPLDPLTMHSTYDRAGAVPRTPLAGPNIDYPVLYGKYLNGLGRLPAKTLKPEVRLVKLPFFNMLDELLKPTELVPQNNEKLQESPCIFALTPRQVELIRNSRELQPGVKAVQVVLRICYSDTSCPQEDQYPPNIAVKVNHSYCSVPGYYPSNKPGVEPKRPCRPINLTHLMYLSSATNRITVTWGNYGKSYSVALYLVRQLTSSELLQRLKTIGVKHPELCKALVKEKLRLDPDSEIATTGVRVSLICPLVKMRLSVPCRAETCAHLQCFDAVFYLQMNEKKPTWMCPVCDKPAPYDQLIIDGLLSKILSECEDADEIEYLVDGSWCPIRAEKERSCSPQGAILVLGPSDANGLLPAPSVNGSGALGSTGGGGPVGSMENGKPGADVVDLTLDSSSSSEDEEEEEEEEEDEDEEGPRPKRRCPFQKGLVPAC

Variants of: B1
Conditions: with parp1_human PARP1, P09874
Chain of parp1_human PARP1, P09874 (P09874 whole entry): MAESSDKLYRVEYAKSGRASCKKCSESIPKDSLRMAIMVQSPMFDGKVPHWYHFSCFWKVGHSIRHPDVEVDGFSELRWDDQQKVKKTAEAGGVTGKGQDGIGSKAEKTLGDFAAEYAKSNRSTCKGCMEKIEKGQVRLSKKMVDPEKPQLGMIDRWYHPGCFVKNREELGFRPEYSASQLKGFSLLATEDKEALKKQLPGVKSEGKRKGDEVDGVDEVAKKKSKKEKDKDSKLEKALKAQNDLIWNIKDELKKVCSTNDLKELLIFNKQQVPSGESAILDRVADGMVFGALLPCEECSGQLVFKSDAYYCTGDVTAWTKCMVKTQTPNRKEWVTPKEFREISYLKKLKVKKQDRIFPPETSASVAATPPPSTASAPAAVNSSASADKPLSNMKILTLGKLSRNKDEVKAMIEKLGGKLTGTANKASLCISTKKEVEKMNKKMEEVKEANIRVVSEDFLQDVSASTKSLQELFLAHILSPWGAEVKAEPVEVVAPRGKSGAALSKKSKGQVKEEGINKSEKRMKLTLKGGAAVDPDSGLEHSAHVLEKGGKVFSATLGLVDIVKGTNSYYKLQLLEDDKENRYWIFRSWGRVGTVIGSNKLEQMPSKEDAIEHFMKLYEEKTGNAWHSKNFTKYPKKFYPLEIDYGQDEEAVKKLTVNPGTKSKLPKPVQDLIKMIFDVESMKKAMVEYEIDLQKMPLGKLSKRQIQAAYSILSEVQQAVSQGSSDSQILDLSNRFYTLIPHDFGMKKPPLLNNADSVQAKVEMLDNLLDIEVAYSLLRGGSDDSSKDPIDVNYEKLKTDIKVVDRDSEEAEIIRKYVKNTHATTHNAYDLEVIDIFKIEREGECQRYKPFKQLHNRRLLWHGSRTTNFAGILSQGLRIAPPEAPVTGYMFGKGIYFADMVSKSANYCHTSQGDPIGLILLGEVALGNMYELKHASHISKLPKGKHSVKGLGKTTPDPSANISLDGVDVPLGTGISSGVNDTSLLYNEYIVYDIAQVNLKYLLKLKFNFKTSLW

effect of a mutation on the interaction	Variant
disrupting interaction	MAAELVEAKNMVMSFRVSDLQMLLGFVGRSKSGLKHELVTRALQLVQFDCSPELFKKIKELYETRYAKKNSEPAPQPHRPLDPLTMHSTYDRAGAVPRTPLAGPNIDYPVLYGKYLNGLGRLPAKTLKPEVRLVKLPFFNMLDELLKPTELVPQNNEKLQESPCIFALTPRQVELIRNSRELQPGVKAVQVVLRICYSDTSCPQEDQYPPNIAVKVNHSYCSVPGYYPSNKPGVEPKRPCRPINLTHLMYLSSATNRITVTWGNYGKSYSVALYLVRQLTSSELLQRLKTIGVKHPELCKALVKEKLRLDPDSEIATTGVRVSLICPLVKMRLSVPCRAETFAHLQCFDAVFYLQMNEKKPTWMCPVCDKPAPYDQLIIDGLLSKILSECEDADEIEYLVDGSWCPIRAEKERSCSPQGAILVLGPSDANGLLPAPSVNGSGALGSTGGGGPVGSMENGKPGADVVDLTLDSSSSSEDEEEEEEEEEDEDEEGPRPKRRCPFQKGLVPAC [C342F]
